Source: article PMC6831827, “Structural characterization of the RH1-LZI tandem of JIP3/4 highlights RH1 domains as a cytoskeletal motor-binding motif” (Scientific Reports, 2019)

Key:
[1] = target: RILPL2 RH1-cc (Homo sapiens) (UniProt Q969X0); test: ITC; conditions: cited from earlier work
[2] = target: the molecule itself; test: SEC-MALS; Superdex 200 10/300 GL increase, 20 mM Hepes pH 7.5, 200 mM NaCl, 0.5 ml/min; oligomeric state of the fragment
[3] = target: the molecule itself; test: AUC; sedimentation velocity with fluorescence detection (SV-FDS), 20 °C, 50,000 rpm; dilution series of Blue-NHS-labelled fragment (RH1-LZI 460 nM to 1.1 nM; LZI 770 nM to 2.4 nM; above 60 nM mixed with unlabelled protein); dimer to monomers
[4] = target: T1, human myosin 5a globular tail domain (GTD; residues 1463-1855) (human, UniProt Q9Y4I1 1463-1855); test: AUC; sedimentation velocity, absorbance at 280 nm, 20 °C, 42000 rpm; 20 mM Hepes pH 7.5, 150 mM NaCl, 2 mM MgCl2, 1 mM TCEP; mixtures 22.5 uM JIP3-RH1-LZI + 7.5 uM myo5a-GTD and 7.5 uM JIP3-RH1-LZI + 22.5 uM myo5a-GTD; conditions: both partners purified
T1 construct: myosin 5a (myo5a), human, globular tail domain, residues 1463-1855; pProEx HTB vector with N-terminal 6x Histidine tag and a rTEV cleavage site; the methods describe no cleavage step; also called myo5a-GTD; myo5A-GTD; source: E. coli Rosetta, purified (His-Trap, Superdex 75 gel filtration)

[5] = target: T1, human myosin 5a globular tail domain …; test: MST; 25 nM Blue-NHS-labelled JIP3 fragment, myo5a-GTD titrated (16 1:1 dilutions); 20 mM hepes pH 7.5, 150 mM NaCl, 2 mM MgCl2, 0.5 mM TCEP, 0.05% tween; 25 °C; three independent replicates; conditions: both partners purified

T1 sequence (Q9Y4I1 1463-1855): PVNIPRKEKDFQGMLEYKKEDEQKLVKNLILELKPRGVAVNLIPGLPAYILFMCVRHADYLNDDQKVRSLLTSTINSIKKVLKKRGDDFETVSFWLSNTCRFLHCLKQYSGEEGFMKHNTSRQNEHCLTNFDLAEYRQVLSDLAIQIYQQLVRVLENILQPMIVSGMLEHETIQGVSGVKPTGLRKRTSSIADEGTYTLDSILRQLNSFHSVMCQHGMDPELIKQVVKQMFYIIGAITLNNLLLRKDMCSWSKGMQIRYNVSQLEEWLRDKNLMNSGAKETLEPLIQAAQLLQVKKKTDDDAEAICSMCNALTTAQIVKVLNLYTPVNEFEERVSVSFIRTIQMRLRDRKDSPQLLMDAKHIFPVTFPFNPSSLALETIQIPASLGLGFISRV
Chain of myosin Va GTD (Q9Y4I1 1464-1855): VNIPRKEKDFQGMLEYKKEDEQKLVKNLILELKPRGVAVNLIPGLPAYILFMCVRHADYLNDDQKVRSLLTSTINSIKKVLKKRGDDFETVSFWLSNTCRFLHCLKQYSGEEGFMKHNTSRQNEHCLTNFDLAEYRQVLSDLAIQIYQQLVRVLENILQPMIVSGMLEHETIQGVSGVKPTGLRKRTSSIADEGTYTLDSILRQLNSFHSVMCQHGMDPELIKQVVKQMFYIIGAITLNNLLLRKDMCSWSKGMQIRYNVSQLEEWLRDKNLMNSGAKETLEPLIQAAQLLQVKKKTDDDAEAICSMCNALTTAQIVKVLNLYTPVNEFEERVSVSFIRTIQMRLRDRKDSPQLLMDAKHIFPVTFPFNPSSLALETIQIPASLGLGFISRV
Chain of RILPL2 RH1-cc (Homo sapiens) (Q969X0 1-97): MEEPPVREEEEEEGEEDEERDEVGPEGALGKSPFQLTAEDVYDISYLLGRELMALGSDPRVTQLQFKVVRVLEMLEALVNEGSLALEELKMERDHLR

Row | binding result [4] | Kd [5] [nM] | Molecule | Kd [1] [nM] | stoichiometry N [2] | Kd [3] [nM]
1 | binds |  | RH1-LZI fragment of JIP3 (residues 22-187) (domain or fragment, mouse, labelled with Monolith NT.115 Protein Labelling Kit BLUE NHS in the SV-FDS experiments only, Gly-Ser-His residues remaining after the thrombin cleavage; The construct is mouse JIP3; Results and modelling speak of human JIP3 (NP_055948.2); also called JIP3-RH1-LZI; RH1-LZI tandem of JIP3; not shown: His-thioredoxin, N-terminal, cleaved) GSHGSVMSERVSGLAGSIYREFERLIHCYDEEVVKELMPLVVNVLENLDSVLSENQEHEVELELLREDNEQLLTQYEREKALRKQAEEKFIEFEDALEQEKKELQIQVEHYEFQTRQLELKAKNYADQISRLEERESEMKKEYNALHQRHTEMIQTYVEHIERSKMQQV |  | 2 | < 1
2 |  | 2200 ± 500 | RH1-lz3 fragment of JIP3 (residues 22-100) (domain or fragment, mouse, UniProt Q9ESN9-1 22-100, looked up, labelled with Protein Labeling Kit Blue-NHS in the MST experiment only, cloned, expressed and purified similarly as the other JIP3 fragments, which are of mouse JIP3 NP_038959.2; also called JIP3-RH1-lz3; JIP3-RH1-Lz3; source: E. coli Rosetta, purified similarly as the other JIP3/4 fragments; not shown: His-thioredoxin, N-terminal, cleaved) GSVMSERVSGLAGSIYREFERLIHCYDEEVVKELMPLVVNVLENLDSVLSENQEHEVELELLREDNEQLLTQYEREKAL |  | 2 | 

Further lines, the molecule ahead of its results:

Row | Molecule | binding result [4] | Kd [5] [nM] | Kd [1] [nM] | stoichiometry N [2] | Kd [3] [nM]
3 | myosin Va GTD (from UniProt Q9Y4I1) |  |  | 300 |  | 
4 | LZI fragment of JIP3 (residues 71-187) (domain or fragment, mouse, UniProt Q9ESN9-1 71-187, looked up, labelled with Monolith NT.115 Protein Labelling Kit BLUE NHS in the SV-FDS experiments only, also called JIP3-LZI; LZ1 fragment; not shown: His-thioredoxin, N-terminal, cleaved) SENQEHEVELELLREDNEQLLTQYEREKALRKQAEEKFIEFEDALEQEKKELQIQVEHYEFQTRQLELKAKNYADQISRLEERESEMKKEYNALHQRHTEMIQTYVEHIERSKMQQV |  |  |  | 2 | 110
